We go through 6 molecules from patent US20210139548A1 (published 2021).

*1 amine or outer side, *2 acyl side, *3 side chain or, on linkers, in order; H or OH if unused. Side-chain parts run from the residue outwards. The star is where a group is joined. C18 diacid = O=C(O)CCCCCCCCCCCCCCCCC(=O)*; γGlu = O=C(O)[C@H](CCC(=O)[*:2])N[*:1]; Isovaleryl = CC(C)CC(=O)*; AEEA = NCCOCCOCC(=O)O

T1: human neuropeptide Y2 receptor (human, UniProt P49146 1-381)
T1 construct: whole, on cells; also called hNPY2 receptor; hNPY2-R
T1 sequence (looked up): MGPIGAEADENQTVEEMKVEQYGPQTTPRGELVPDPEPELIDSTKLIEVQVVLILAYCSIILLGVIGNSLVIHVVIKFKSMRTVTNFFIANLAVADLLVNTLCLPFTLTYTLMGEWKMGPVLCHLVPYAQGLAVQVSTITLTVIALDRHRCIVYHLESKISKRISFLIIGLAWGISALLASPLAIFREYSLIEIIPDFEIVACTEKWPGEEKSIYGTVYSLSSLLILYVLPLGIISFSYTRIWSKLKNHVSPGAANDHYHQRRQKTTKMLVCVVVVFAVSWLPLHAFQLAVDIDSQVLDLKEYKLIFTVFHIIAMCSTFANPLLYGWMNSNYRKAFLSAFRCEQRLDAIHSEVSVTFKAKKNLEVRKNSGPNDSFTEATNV

B1: Compound 87 (peptide)
peptide: Isovaleryl-APEK([AEEA-AEEA-γGlu-C18 diacid])PEEDSSPAELQRYYVSLRHYYNWLTRQRY-NH2
SMILES: CC(C)CC(=O)N[C@@H](C)C(=O)N1CCC[C@H]1C(=O)N[C@@H](CCC(=O)O)C(=O)N[C@@H](CCCCNC(=O)COCCOCCNC(=O)COCCOCCNC(=O)CC[C@H](NC(=O)CCCCCCCCCCCCCCCCC(=O)O)C(=O)O)C(=O)N1CCC[C@H]1C(=O)N[C@@H](CCC(=O)O)C(=O)N[C@@H](CCC(=O)O)C(=O)N[C@@H](CC(=O)O)C(=O)N[C@@H](CO)C(=O)N[C@@H](CO)C(=O)N1CCC[C@H]1C(=O)N[C@@H](C)C(=O)N[C@@H](CCC(=O)O)C(=O)N[C@@H](CC(C)C)C(=O)N[C@@H](CCC(N)=O)C(=O)N[C@@H](CCCNC(=N)N)C(=O)N[C@@H](Cc1ccc(O)cc1)C(=O)N[C@@H](Cc1ccc(O)cc1)C(=O)N[C@H](C(=O)N[C@@H](CO)C(=O)N[C@@H](CC(C)C)C(=O)N[C@@H](CCCNC(=N)N)C(=O)N[C@@H](Cc1c[nH]cn1)C(=O)N[C@@H](Cc1ccc(O)cc1)C(=O)N[C@@H](Cc1ccc(O)cc1)C(=O)N[C@@H](CC(N)=O)C(=O)N[C@@H](Cc1c[nH]c2ccccc12)C(=O)N[C@@H](CC(C)C)C(=O)N[C@H](C(=O)N[C@@H](CCCNC(=N)N)C(=O)N[C@@H](CCC(N)=O)C(=O)N[C@@H](CCCNC(=N)N)C(=O)N[C@@H](Cc1ccc(O)cc1)C(N)=O)[C@@H](C)O)C(C)C
B2: Compound 92 (peptide)
peptide: Isovaleryl-APEK([AEEA-AEEA-γGlu-C18 diacid])PEEDTSPEELQRYYVSLRHYYNWLTRQRY-NH2
SMILES: CC(C)CC(=O)N[C@@H](C)C(=O)N1CCC[C@H]1C(=O)N[C@@H](CCC(=O)O)C(=O)N[C@@H](CCCCNC(=O)COCCOCCNC(=O)COCCOCCNC(=O)CC[C@H](NC(=O)CCCCCCCCCCCCCCCCC(=O)O)C(=O)O)C(=O)N1CCC[C@H]1C(=O)N[C@@H](CCC(=O)O)C(=O)N[C@@H](CCC(=O)O)C(=O)N[C@@H](CC(=O)O)C(=O)N[C@H](C(=O)N[C@@H](CO)C(=O)N1CCC[C@H]1C(=O)N[C@@H](CCC(=O)O)C(=O)N[C@@H](CCC(=O)O)C(=O)N[C@@H](CC(C)C)C(=O)N[C@@H](CCC(N)=O)C(=O)N[C@@H](CCCNC(=N)N)C(=O)N[C@@H](Cc1ccc(O)cc1)C(=O)N[C@@H](Cc1ccc(O)cc1)C(=O)N[C@H](C(=O)N[C@@H](CO)C(=O)N[C@@H](CC(C)C)C(=O)N[C@@H](CCCNC(=N)N)C(=O)N[C@@H](Cc1c[nH]cn1)C(=O)N[C@@H](Cc1ccc(O)cc1)C(=O)N[C@@H](Cc1ccc(O)cc1)C(=O)N[C@@H](CC(N)=O)C(=O)N[C@@H](Cc1c[nH]c2ccccc12)C(=O)N[C@@H](CC(C)C)C(=O)N[C@H](C(=O)N[C@@H](CCCNC(=N)N)C(=O)N[C@@H](CCC(N)=O)C(=O)N[C@@H](CCCNC(=N)N)C(=O)N[C@@H](Cc1ccc(O)cc1)C(N)=O)[C@@H](C)O)C(C)C)[C@@H](C)O
B3: Compound 94 (peptide)
peptide: Isovaleryl-APEK([AEEA-AEEA-γGlu-C18 diacid])PEEDASPEETQRYYVELRHYYNWLTRQRY-NH2
SMILES: CC(C)CC(=O)N[C@@H](C)C(=O)N1CCC[C@H]1C(=O)N[C@@H](CCC(=O)O)C(=O)N[C@@H](CCCCNC(=O)COCCOCCNC(=O)COCCOCCNC(=O)CC[C@H](NC(=O)CCCCCCCCCCCCCCCCC(=O)O)C(=O)O)C(=O)N1CCC[C@H]1C(=O)N[C@@H](CCC(=O)O)C(=O)N[C@@H](CCC(=O)O)C(=O)N[C@@H](CC(=O)O)C(=O)N[C@@H](C)C(=O)N[C@@H](CO)C(=O)N1CCC[C@H]1C(=O)N[C@@H](CCC(=O)O)C(=O)N[C@@H](CCC(=O)O)C(=O)N[C@H](C(=O)N[C@@H](CCC(N)=O)C(=O)N[C@@H](CCCNC(=N)N)C(=O)N[C@@H](Cc1ccc(O)cc1)C(=O)N[C@@H](Cc1ccc(O)cc1)C(=O)N[C@H](C(=O)N[C@@H](CCC(=O)O)C(=O)N[C@@H](CC(C)C)C(=O)N[C@@H](CCCNC(=N)N)C(=O)N[C@@H](Cc1c[nH]cn1)C(=O)N[C@@H](Cc1ccc(O)cc1)C(=O)N[C@@H](Cc1ccc(O)cc1)C(=O)N[C@@H](CC(N)=O)C(=O)N[C@@H](Cc1c[nH]c2ccccc12)C(=O)N[C@@H](CC(C)C)C(=O)N[C@H](C(=O)N[C@@H](CCCNC(=N)N)C(=O)N[C@@H](CCC(N)=O)C(=O)N[C@@H](CCCNC(=N)N)C(=O)N[C@@H](Cc1ccc(O)cc1)C(N)=O)[C@@H](C)O)C(C)C)[C@@H](C)O
B4: Compound 89 (peptide)
peptide: Isovaleryl-APEK([AEEA-AEEA-γGlu-C18 diacid])PEEEAEPEELQRYYVSLRHYYNWLTRQRY-NH2
SMILES: CC(C)CC(=O)N[C@@H](C)C(=O)N1CCC[C@H]1C(=O)N[C@@H](CCC(=O)O)C(=O)N[C@@H](CCCCNC(=O)COCCOCCNC(=O)COCCOCCNC(=O)CC[C@H](NC(=O)CCCCCCCCCCCCCCCCC(=O)O)C(=O)O)C(=O)N1CCC[C@H]1C(=O)N[C@@H](CCC(=O)O)C(=O)N[C@@H](CCC(=O)O)C(=O)N[C@@H](CCC(=O)O)C(=O)N[C@@H](C)C(=O)N[C@@H](CCC(=O)O)C(=O)N1CCC[C@H]1C(=O)N[C@@H](CCC(=O)O)C(=O)N[C@@H](CCC(=O)O)C(=O)N[C@@H](CC(C)C)C(=O)N[C@@H](CCC(N)=O)C(=O)N[C@@H](CCCNC(=N)N)C(=O)N[C@@H](Cc1ccc(O)cc1)C(=O)N[C@@H](Cc1ccc(O)cc1)C(=O)N[C@H](C(=O)N[C@@H](CO)C(=O)N[C@@H](CC(C)C)C(=O)N[C@@H](CCCNC(=N)N)C(=O)N[C@@H](Cc1c[nH]cn1)C(=O)N[C@@H](Cc1ccc(O)cc1)C(=O)N[C@@H](Cc1ccc(O)cc1)C(=O)N[C@@H](CC(N)=O)C(=O)N[C@@H](Cc1c[nH]c2ccccc12)C(=O)N[C@@H](CC(C)C)C(=O)N[C@H](C(=O)N[C@@H](CCCNC(=N)N)C(=O)N[C@@H](CCC(N)=O)C(=O)N[C@@H](CCCNC(=N)N)C(=O)N[C@@H](Cc1ccc(O)cc1)C(N)=O)[C@@H](C)O)C(C)C
B5: Compound 90 (peptide)
peptide: Isovaleryl-APEK([AEEA-AEEA-γGlu-C18 diacid])PEEDASPEELQRYEVSLRHYYNWLTRQRY-NH2
SMILES: CC(C)CC(=O)N[C@@H](C)C(=O)N1CCC[C@H]1C(=O)N[C@@H](CCC(=O)O)C(=O)N[C@@H](CCCCNC(=O)COCCOCCNC(=O)COCCOCCNC(=O)CC[C@H](NC(=O)CCCCCCCCCCCCCCCCC(=O)O)C(=O)O)C(=O)N1CCC[C@H]1C(=O)N[C@@H](CCC(=O)O)C(=O)N[C@@H](CCC(=O)O)C(=O)N[C@@H](CC(=O)O)C(=O)N[C@@H](C)C(=O)N[C@@H](CO)C(=O)N1CCC[C@H]1C(=O)N[C@@H](CCC(=O)O)C(=O)N[C@@H](CCC(=O)O)C(=O)N[C@@H](CC(C)C)C(=O)N[C@@H](CCC(N)=O)C(=O)N[C@@H](CCCNC(=N)N)C(=O)N[C@@H](Cc1ccc(O)cc1)C(=O)N[C@@H](CCC(=O)O)C(=O)N[C@H](C(=O)N[C@@H](CO)C(=O)N[C@@H](CC(C)C)C(=O)N[C@@H](CCCNC(=N)N)C(=O)N[C@@H](Cc1c[nH]cn1)C(=O)N[C@@H](Cc1ccc(O)cc1)C(=O)N[C@@H](Cc1ccc(O)cc1)C(=O)N[C@@H](CC(N)=O)C(=O)N[C@@H](Cc1c[nH]c2ccccc12)C(=O)N[C@@H](CC(C)C)C(=O)N[C@H](C(=O)N[C@@H](CCCNC(=N)N)C(=O)N[C@@H](CCC(N)=O)C(=O)N[C@@H](CCCNC(=N)N)C(=O)N[C@@H](Cc1ccc(O)cc1)C(N)=O)[C@@H](C)O)C(C)C
B6: Compound 95 (peptide)
peptide: Isovaleryl-APEK([AEEA-AEEA-γGlu-C18 diacid])PEEDASPAEIQRYYVSLRHYYNWLTRQRY-NH2
SMILES: CC[C@H](C)[C@H](NC(=O)[C@H](CCC(=O)O)NC(=O)[C@H](C)NC(=O)[C@@H]1CCCN1C(=O)[C@H](CO)NC(=O)[C@H](C)NC(=O)[C@H](CC(=O)O)NC(=O)[C@H](CCC(=O)O)NC(=O)[C@H](CCC(=O)O)NC(=O)[C@@H]1CCCN1C(=O)[C@H](CCCCNC(=O)COCCOCCNC(=O)COCCOCCNC(=O)CC[C@H](NC(=O)CCCCCCCCCCCCCCCCC(=O)O)C(=O)O)NC(=O)[C@H](CCC(=O)O)NC(=O)[C@@H]1CCCN1C(=O)[C@H](C)NC(=O)CC(C)C)C(=O)N[C@@H](CCC(N)=O)C(=O)N[C@@H](CCCNC(=N)N)C(=O)N[C@@H](Cc1ccc(O)cc1)C(=O)N[C@@H](Cc1ccc(O)cc1)C(=O)N[C@H](C(=O)N[C@@H](CO)C(=O)N[C@@H](CC(C)C)C(=O)N[C@@H](CCCNC(=N)N)C(=O)N[C@@H](Cc1c[nH]cn1)C(=O)N[C@@H](Cc1ccc(O)cc1)C(=O)N[C@@H](Cc1ccc(O)cc1)C(=O)N[C@@H](CC(N)=O)C(=O)N[C@@H](Cc1c[nH]c2ccccc12)C(=O)N[C@@H](CC(C)C)C(=O)N[C@H](C(=O)N[C@@H](CCCNC(=N)N)C(=O)N[C@@H](CCC(N)=O)C(=O)N[C@@H](CCCNC(=N)N)C(=O)N[C@@H](Cc1ccc(O)cc1)C(N)=O)[C@@H](C)O)C(C)C

The assay deals with T1, human neuropeptide Y2 receptor. Description: radioligand competition (125I-PYY(1-36)), hNPY2R membranes. The method in brief:
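Commercial human Y2 receptor membranes (0.5 μg protein/well) were incubated with peptide for 2 h at room temperature in 50 mM HEPES, 5 mM MgCl₂, 1 mM CaCl₂, pH 7.4, with 0.2% ovalbumin. Bound radioligand was separated on PEI-soaked GF/C filters and counted by scintillation, and IC₅₀ came from nonlinear sigmoidal regression.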
(In general: Loss of bound radioactivity is the signal in a displacement assay; it reports binding, not function.)
The term Ki denotes a measure of affinity in units of concentration, obtained from inhibition or displacement. Read a low Ki as higher affinity. Turning to B1, the affinity corresponds to a Ki of 1.97 nM. For B2 the value was 1.57 nM. Turning to B3, the affinity, expressed as Ki, was 2.07 nM. As for B4, the affinity, expressed as Ki, was 9.61 nM. Molecule B5 registered a Ki of 1.6 nM.

B6: the Ki is 0.66 nM.
